Laboratory results reported in patent publication US20200181239A1.

Key:
canine PD-L1 (canine) = assay: competition ELISA: biotinylated canine PD-L1 pre-incubated with the inhibitor, then bound to coated canine PD-1, streptavidin-HRP
papain = papain (UniProt P00784)
[1] = target: T1, human Stefin A (wild type human Cystatin A)
T1 chain: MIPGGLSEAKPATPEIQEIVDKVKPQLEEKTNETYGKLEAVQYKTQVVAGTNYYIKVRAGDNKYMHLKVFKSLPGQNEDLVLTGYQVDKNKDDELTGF

canine PD-1 (receptor) was tested. Which IC50 (read off the curve) (canine PD-L1 (canine)) did it give?
Its IC50 (read off the curve) is 20 nM.

“human Stefin A (wild type human Cystatin A) (from UniProt P01040 1-98)” was tested. Which IC50 (read off the curve) (papain) did it give?
Its IC50 (read off the curve) is 1 nM.

B1: papain (protein)
chain: IPEYVDWRQKGAVTPVKNQGSCGSCWAFSAVVTIEGIIKIRTGNLNEYSEQELLDCDRRSYGCNGGYPWSALQLVAQYGIHYRNTYPYEGVQRYCRSREKGPYAAKTDGVRQVQPYNEGALLYSIANQPVSVVLEAAGKDFQLYRGGIFVGPCGNKVDHAVAAVGYGPNYILIKNSWGTGWGENGYIRIKRGTGNSYGVCGLYTSSFYPVKN
With B1 as the molecule, how does the “papain activity assay: fluorescence (excitation 380 nm, emission 460 nm) from the substrate N-Carbobenzyloxy-Phe-Arg-7-amido-4-methylcoumarin” value [1] read?
The value was “hSteA is a potent inhibitor of papain”.
